{"source": "paper PMC10986471", "about": "(Microbiology Spectrum, 2024)", "binders": {"B1": {"name": "CSW2-1353 (antibody, V domains shown)", "VH": "EVQLVESGGGLVQPKGSLKLSCAASGFNFNTYAMNWVRQAPGKGLEWVARIRSKSENYVIYYADSVKDRFTISRDDSQNMLYLQMNNLKTEDTAMYYCVMSYYGNYWFAYWGQGTLVTVSA", "VL": "DVVVTQTPLSLPVSLGDQASISCRSSQSLVHNNGNTYLHWYLQKPGQSPKLLIYKVSNRFSGVPDRFSGSGSGTDFTLKISRVEAEDLGVYFCSQSTHIPWTFGGGTKLEIK", "notes": "copies: 2 + 2"}, "B2": {"name": "CSW1-1805 (antibody, V domains shown)", "VH": "EVQLQQSGPELVKPGASLRISCRTSEYTFTENTMYWVKQSHGKSLEWIGGINPNNGDTIYNQQFKGKATLTVDKSSSTAYMELRSLTSEDSAVYYCARDSPVVPGDYWGQGTTLTVSS", "VL": "DIVMTQSPSSLPVSVGEKVTMRCKSSQSLLYSSNQKNYLAWYQQKSGQSPKLMIYWASTRECGVPDRFTGSGSGTDFTLTISNVKAEDLAVYYCQQYYRYPLTFGVGTKLELK", "notes": "copies: 2 + 2"}}, "assay_in_all_cases": "ELISA", "details_in_all_cases": "both partners purified", "key": {"[1]": {"target": "RBD of the Alpha variant (B.1.1.7 lineage) (SARS-CoV-2 Alpha (B.1.1.7), N501Y)"}, "[2]": {"target": "RBD^B.1 (receptor-binding domain of Spike^B.1) (SARS-CoV-2 B.1 (RBD as Wuhan-Hu-1), UniProt P0DTC2)"}, "[3]": {"target": "RBD of the Delta variant (B.1.617.2 lineage) (SARS-CoV-2 Delta (B.1.617.2), L452R | T478K)"}, "[4]": {"target": "RBD of the Gamma variant (P.1 lineage) (SARS-CoV-2 Gamma (P.1), K417T | E484K | N501Y)"}, "[5]": {"target": "RBD of the Beta variant (B.1.351 lineage) (SARS-CoV-2 Beta (B.1.351), K417N | E484K | N501Y)"}}}
{"binder": "B1", "values": [{"measurement": "Kd", "setting": "[1]", "value": 0.152, "unit": "nM"}, {"measurement": "Kd", "setting": "[2]", "value": 0.118, "unit": "nM"}, {"measurement": "Kd", "setting": "[3]", "value": 0.114, "unit": "nM"}]}
{"binder": "B2", "values": [{"measurement": "Kd", "setting": "[4]", "value": 0.494, "unit": "nM"}, {"measurement": "Kd", "setting": "[1]", "value": 0.452, "unit": "nM"}, {"measurement": "Kd", "setting": "[2]", "value": 0.453, "unit": "nM"}, {"measurement": "Kd", "setting": "[3]", "value": 0.262, "unit": "nM"}, {"measurement": "Kd", "setting": "[5]", "value": 0.482, "unit": "nM"}]}
